Target: TTF2 1-100 (UniProt Q5NC05)
Assay: isothermal titration calorimetry
Settings: reference: unphosphorylated TRAIP 313-329 peptide; sites T325

TRAIP 313-329 (from UniProt Q8VIG6) pT325 TRAIP 313-329 peptide
binding against the reference: gained

— doi:10.1101/2024.12.01.626218
